Reference: patent US20100130424A1 (Janssen / Centocor, published 2010)
Like-named read-outs stand apart in the source and are kept apart here. No end group written: not given here.

Legend:
[1] = target: T1, human CRH receptor type 2 (human, UniProt Q13324 1-411); test: cell-based or functional assay
T1 sequence (looked up): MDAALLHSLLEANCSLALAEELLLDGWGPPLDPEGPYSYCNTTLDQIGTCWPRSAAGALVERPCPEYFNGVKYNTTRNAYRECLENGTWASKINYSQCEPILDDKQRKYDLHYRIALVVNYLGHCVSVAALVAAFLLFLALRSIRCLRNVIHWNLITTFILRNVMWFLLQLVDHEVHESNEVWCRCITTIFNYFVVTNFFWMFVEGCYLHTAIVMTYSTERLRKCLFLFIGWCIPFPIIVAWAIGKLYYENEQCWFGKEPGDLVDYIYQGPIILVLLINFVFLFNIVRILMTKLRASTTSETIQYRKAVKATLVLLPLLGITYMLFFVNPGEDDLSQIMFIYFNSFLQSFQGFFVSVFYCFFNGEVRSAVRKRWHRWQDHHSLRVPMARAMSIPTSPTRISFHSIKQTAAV

[2] = target: T1, human CRH receptor type 2; test: cell-based or functional assay; remark: listed apart in the source
[3] = target: T1, human CRH receptor type 2; test: radioligand competition, [125I]-anti-sauvagine-30, membranes of h-CRHR2 SK-N-MC cells
[4] = target: T1, human CRH receptor type 2; test: cell-based or functional assay; remark: listed apart in the source
[5] = target: T2, human CRH receptor type 1 (human, UniProt P34998 24-415); test: radioligand competition, [125I]-(Tyr0)-sauvagine, CRHR1 membrane assay
T2 construct: whole, on cells; on transfected SK-N-MC cells (cAMP assay); membranes in the radioligand assay; also called CRHR1; h-CRHR1
T2 sequence (looked up): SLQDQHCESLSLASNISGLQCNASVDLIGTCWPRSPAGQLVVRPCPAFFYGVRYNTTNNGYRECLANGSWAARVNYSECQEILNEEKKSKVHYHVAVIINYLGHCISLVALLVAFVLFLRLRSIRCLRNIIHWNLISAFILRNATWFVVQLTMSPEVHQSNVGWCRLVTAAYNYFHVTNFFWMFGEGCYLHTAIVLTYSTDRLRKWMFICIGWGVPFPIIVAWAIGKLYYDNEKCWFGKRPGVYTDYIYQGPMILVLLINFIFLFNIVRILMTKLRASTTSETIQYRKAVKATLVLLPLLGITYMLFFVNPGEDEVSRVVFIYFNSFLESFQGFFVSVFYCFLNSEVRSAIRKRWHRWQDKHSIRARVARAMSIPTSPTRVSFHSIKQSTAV
Protocol: Frozen cell pellets were defrosted on ice in 15 ml of assay buffer that was composed of 10 mM HEPES, 130 mM NaCl, 4.7 mM KCl, 5 mM MgCl₂, and 0.089 mM bacitracin at pH 7.2 and 21±3° Celsius. The solution was then homogenized with a Polytron tissue grinder at a setting of 10 and 7×3s (Brinkmann Instruments, Westbury, N.Y.). The homogenate was centrifuged at 4° Celsius at 800×g for 5 min with the pellet being discarded. The supernatant was re-centrifuged at 26,892×g for 25 min at 4° Celsius with the final pellet being re-suspended in assay buffer. All binding assays were conducted in 96-well Multiscreen GF/B filter plates (Millipore, Billericay, Mass., U.S.A.) that were pre-soaked in assay buffer with 0.3% PEI for 1 hour. […] The bound radioactivity was separated by filtration using a Multiscreen Resist manifold (Millipore Corp., Billerica, Mass., U.S.A). The filters were washed three times with ice-cold PBS at pH 7.5 and radioactivity retained on the filters was quantified by its liquid scintillation measured by a TopCount counter (Packard BioScience, Boston, Mass., U.S.A). All experiments were performed in triplicate.
Data from individual competition curves were expressed as the percentage of specific [¹²⁵I]-anti-sauvagine-30 or)[¹²⁵I]-(Tyr⁰-sauvagine binding (B) within each experiment.

[6] = target: T2, human CRH receptor type 1; test: cell-based or functional assay
[7] = target: T1, human CRH receptor type 2; test: cell-based or functional assay; remark: listed apart in the source
[8] = target: T3, human CRH receptor type 1 (human), P34998; test: radioligand competition, [125I]-(Tyr0)-sauvagine, CRHR1 membrane assay; conditions: remark: other sources report otherwise
T3 chain: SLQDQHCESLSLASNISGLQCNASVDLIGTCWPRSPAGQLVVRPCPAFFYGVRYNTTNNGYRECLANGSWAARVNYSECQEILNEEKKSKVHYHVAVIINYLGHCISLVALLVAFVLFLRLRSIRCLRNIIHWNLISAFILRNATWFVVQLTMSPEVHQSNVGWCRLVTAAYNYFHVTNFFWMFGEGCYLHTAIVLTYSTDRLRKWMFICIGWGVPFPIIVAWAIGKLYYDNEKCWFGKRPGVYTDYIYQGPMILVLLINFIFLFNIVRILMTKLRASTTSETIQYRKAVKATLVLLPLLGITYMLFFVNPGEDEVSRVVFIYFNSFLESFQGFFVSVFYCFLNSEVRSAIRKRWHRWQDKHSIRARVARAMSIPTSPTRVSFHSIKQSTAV

[9] = target: T1, human CRH receptor type 2; test: radioligand competition, [125I]-anti-sauvagine-30, membranes of h-CRHR2 SK-N-MC cells; biphasic curve

Q: TKFTLSLDVPTNIMNLLFNIAKAKNLRAQAAANAHLMAQI-OH [non-amidated h-SCP] was tested. Which “pA50, cAMP” value [1] did it give?
A: The value was 7.1 -log M.

Q: And the “αmax, cAMP” value [1]?
A: Its value is 107 % of the maximum response to h-SCP.

Q: What about the “potency against amidated h-SCP, cAMP” value [2] of the same binder?
A: The value was ~200 fold less potent.

B1: anti-sauvagine-30 (peptide)
peptide: FHLLRKMIEIEKQEKEKQQAANNRLLLDTI-NH2
notes: selective CRHR2 antagonist; also called SV30; CRHR antagonist peptide
Q: B1 was tested. Which pKI [3] did it give?
A: Its pKI is 7.78 -log M.

Q: And the pA2 against h-SCP, cAMP [4]?
A: The pA2 against h-SCP, cAMP was 7.82 -log M.

Q: What about the pKI [5] of the same binder?
A: Its pKI is 5.81 -log M.

Q: Which pKI [3] does the source give for DDPPLSIDLTFHLLRTLLELARTQSQRERAEQNRIIFDSV-NH2 [r-UCN1] here?
A: Its pKI is 8.51 -log M.

Q: What about the “pA50, cAMP” value [6] of the same binder?
A: Its value is 9.19 -log M.

Q: What about the pA50, cAMP [7] of the same binder?
A: The pA50, cAMP was 9.08 -log M.

Q: What about the αmax, cAMP [7] of the same binder?
A: The αmax, cAMP was 110.

Q: Which results are given for FTLSLDVPTNIMNLLFNIAKAKNLRAQAAANAHLMAQI-NH2 [human Urocortin III]?
A: pKI [3]: 6.49 -log M; pA50, cAMP [4]: 9.26 -log M; αmax, cAMP [4]: 102; pKI [8]: 4.96 -log M; pA50, cAMP [6]: < 5 -log M

Q: How did the pKI [3] turn out when TKFTLSLDVPTNIMNLLFNIAKAKNLRAQAAANAHLMAQI-NH2 (40 amino acids; also called h-SCP) [Human stresscopin with amidated C-terminus] was run?
A: Its pKI is 5.71 -log M.

Q: What about the pIC50 (low affinity state) [9] of the same binder?
A: Its pIC50 (low affinity state) is 6.6 -log M.

Q: And the A50, cAMP [4]?
A: Its A50, cAMP is 0.4 nM.

Q: And the control pA50, cAMP [4]?
A: The control pA50, cAMP was 9.47 to 9.74 -log M.

Q: What about the pA50, cAMP [4] of the same binder?
A: The pA50, cAMP was 9.4 -log M.

Q: And the pA50, cAMP (one batch) [4]?
A: The pA50, cAMP (one batch) was 9.41 -log M.

Q: What about the αmax, cAMP (% of the maximum response to h-SCP) [4] of the same binder?
A: Its αmax, cAMP (% of the maximum response to h-SCP) is 98.7.

Q: What about the αmax, cAMP ([4]; scale: % of the maximum response obtained to h-SCP) of the same binder?
A: The αmax, cAMP was 100.

Q: And the pKI [5]?
A: The pKI was 4.6 -log M.

Q: And the “pA50, cAMP” value [6]?
A: The value was < 5 -log M.
